Data on 39 variants can be found in the RNAGym collection of RNA variant scans (doi:10.7554/elife.80360).

The chains are these.
B1: CPEB3 Ribozyme (parent)
chain: GGGGGCCACAGCAGAAGCGUUCACGUCGCGGCCCCUGUCAGAUUCUGGUGAAUCUGCGAAUUCUGCUGU

The data set covers variants of B1. The experiment in a line: self-cleavage, relative activity (ratio to wild type); higher = more cleavage; co-transcriptional.
For GGGGGCGACAGCAGAAUCGUUCACGUCGCGGCCCCUGUCAGAUUCUGGUGAAUCUGCGAAUUCUGCUGU [C7G G17U], the self-cleavage worked out at 0.0489. To GGGGGCGACAGCAGAACCGUUCACGUCGCGGCCCCUGUCAGAUUCUGGUGAAUCUGCGAAUUCUGCUGU [C7G G17C] belongs 0.112; to GGGGGCGACAGCAGAAGCGUUCACGUCGCCGCCCCUGUCAGAUUCUGGUGAAUCUGCGAAUUCUGCUGU [C7G G30C], 1.01. Under GGGGGCGACAGCAGAAGCGUUCACGUCGCAGCCCCUGUCAGAUUCUGGUGAAUCUGCGAAUUCUGCUGU [C7G G30A] stands 0.791; under GGGGGCAACAGCAGAAGCGUUCACGUCGCGGCCCCUGUCAGAUUCUGGUGAAUCUGCGAAUUCUGCUCU [C7A G68C], 0.923. Under GGGGGCAACAGCAGAAGCGUUCACGUCGCGGCCCCUGUCAGAUUCUGGUGAAUCUGCCAAUUCUGCUGU [C7A G58C] stands 0.464. As for GGGGGCGACAGCAGAAGCCUUCACGUCGCGGCCCCUGUCAGAUUCUGGUGAAUCUGCGAAUUCUGCUGU [C7G G19C], the self-cleavage was 0.106. With GGGGGCGACAGCAGAAGAGUUCACGUCGCGGCCCCUGUCAGAUUCUGGUGAAUCUGCGAAUUCUGCUGU [C7G C18A], the self-cleavage worked out at 0.0277. Under GGGGGCGACAGGAGAAGCGUUCACGUCGCGGCCCCUGUCAGAUUCUGGUGAAUCUGCGAAUUCUGCUGU [C7G C12G] stands 0.223. Under GGGGGCGACAGAAGAAGCGUUCACGUCGCGGCCCCUGUCAGAUUCUGGUGAAUCUGCGAAUUCUGCUGU [C7G C12A] stands 0.0557.

GGGGGCGACAGUAGAAGCGUUCACGUCGCGGCCCCUGUCAGAUUCUGGUGAAUCUGCGAAUUCUGCUGU [C7G C12U]: the self-cleavage was 0.383. Under GGGGGCGACAGCAGAAGCGUUCACGGCGCGGCCCCUGUCAGAUUCUGGUGAAUCUGCGAAUUCUGCUGU [C7G U26G] stands 0.233; under GGGGGCGACAGCAGAAGCGUUCACGACGCGGCCCCUGUCAGAUUCUGGUGAAUCUGCGAAUUCUGCUGU [C7G U26A], 0.103. Under GGGGGCAACAGCAGAAGCGUUCACGUCGCGGCCCCAGUCAGAUUCUGGUGAAUCUGCGAAUUCUGCUGU [C7A U36A] stands 0.127; under GGGGGCGACAGCAGAAGCGUUCACGUCGCGGCCCCUGUCAGAUUCUGGUGAGUCUGCGAAUUCUGCUGU [C7G A52G], 0.38.

GGGGGCAACAGCAGAAGCGUUCACGUCGCGGCCCCUGUCAGAUUCUGGUGAAUCUUCGAAUUCUGCUGU [C7A G56U]: the self-cleavage worked out at 0.357. With GGGGGCGACAGCAGAAGCGUUCACGUCGCGGCCCCUGUCAGAUUCUGGUGAAUCUGCGACUUCUGCUGU [C7G A60C], the self-cleavage was 0.196. To GGGGGCAACAGCAGAAGCGUUCACGUCGCGGCCCCUGUCAGAUUCUGGUGAAUCUGCGAAUGCUGCUGU [C7A U62G] belongs 0.29; to GGGGGCAACAGCAGAAGCGUUCACGACGCGGCCCCUGUCAGAUUCUGGUGAAUCUGCGAAUUCUGCUGU [C7A U26A], 0.176.

Regarding GGGGGCAACAGCAGAAGCGUUCACGUCGCGGCCCCUGGCAGAUUCUGGUGAAUCUGCGAAUUCUGCUGU [C7A U38G], the self-cleavage amounted to 0.0677.

Regarding GGGGGCGACAGCAGAAGCGUUCACGUCGCGGCCCCUGUCAGAUUCUGCUGAAUCUGCGAAUUCUGCUGU [C7G G48C], the self-cleavage is 0.502. To GGGGGCGACAGCCGAAGCGUUCACGUCGCGGCCCCUGUCAGAUUCUGGUGAAUCUGCGAAUUCUGCUGU [C7G A13C] belongs 0.285.

Take GGGGGCGACAGCAGAAGCGUUCACGUCGCGGCCCCUUUCAGAUUCUGGUGAAUCUGCGAAUUCUGCUGU [C7G G37U]: the self-cleavage was determined as 0.179. With GGGGGCGACAGCAGAAGCGUUCACGUCGCGGCCCCUCUCAGAUUCUGGUGAAUCUGCGAAUUCUGCUGU [C7G G37C], the self-cleavage came out at 0.118.

For the variant GGGGGCGACAGCAGAAGCGUUCACGUCGCGGCCCCUAUCAGAUUCUGGUGAAUCUGCGAAUUCUGCUGU [C7G G37A], the self-cleavage was determined as 0.153. To GGGGGCGACAGCAGAAGCGUUCACGUAGCGGCCCCUGUCAGAUUCUGGUGAAUCUGCGAAUUCUGCUGU [C7G C27A] belongs 0.11.

Take GGGGGCGACAGCAGAAGCGUUCACGUCGCGGCCCCUGCCAGAUUCUGGUGAAUCUGCGAAUUCUGCUGU [C7G U38C]: the self-cleavage turned out to be 0.174.

Consider GGGGGCGACAGCAGAAGCGUUCACGUCGCGGCCCCUGGCAGAUUCUGGUGAAUCUGCGAAUUCUGCUGU [C7G U38G], for which the self-cleavage stood at 0.068. Regarding GGGGGCGACAGCAGAAGCGUUCACGUCGCGGCCCCUGACAGAUUCUGGUGAAUCUGCGAAUUCUGCUGU [C7G U38A], the self-cleavage stood at 0.264. To GGGGGCAACAGCAGAAGCGUUCACGUCGCGGCCCCUGUCAGAUUCUGGUGAAUCUGCGAAUUCUGCUGC [C7A U69C] belongs 1; to GGGGGCAACAGCAGAAGCGUUCACGUCGCGGCCCCUGUCAGAUUCUGGUGAAUCUGCGAAUUCCGCUGU [C7A U64C], 0.336. Under GGGGGCGACAGCAGAAGCGUUCACGUCGCGGCCCCUGUCAGAUUCUGGUGAAUCUGCGCAUUCUGCUGU [C7G A59C] stands 0.148; under GGGGGCGACAGCAGAAGCGUUCACGUCGCGGCCCCUGUCAGAUUCUGGUGAAUCUGCGUAUUCUGCUGU [C7G A59U], 0.167; under GGGGGCAACAGCAGAAGCGUUCACGUCGCGGCCCCUGUCAGAGUCUGGUGAAUCUGCGAAUUCUGCUGU [C7A U43G], 0.373. Under GGGGGCAACAGCAGAAGCGUUCACGUCGCGGCCCCUGUCAGAAUCUGGUGAAUCUGCGAAUUCUGCUGU [C7A U43A] stands 0.266; under GGGGGCGACAGCAGAAGCGUUCACGUCGCGGCCCCUGUCAGAUUCUCGUGAAUCUGCGAAUUCUGCUGU [C7G G47C], 0.604; under GGGGGCGACAGCAGAAGCGUUCACGUCGCGGCCCCUGUCAGAUUCUUGUGAAUCUGCGAAUUCUGCUGU [C7G G47U], 0.636. Turning to GGGGGCGACAGCAGAAGCGUUCACGUCGCGGCCCAUGUCAGAUUCUGGUGAAUCUGCGAAUUCUGCUGU [C7G C35A], the self-cleavage turned out to be 0.13. Under GGGGGCGACAGCAGAAGCGUUCACGUCGCGGCCCCUGUCAGUUUCUGGUGAAUCUGCGAAUUCUGCUGU [C7G A42U] stands 0.303.
